{"source": "paper PMC2212760", "about": "(The Journal of Experimental Medicine, 2005)", "key": {"FPRL2 [1]": {"biological_target": "T1, FPRL2 (Homo sapiens, UniProt P25089)", "T1 sequence (P25089 1-353)": "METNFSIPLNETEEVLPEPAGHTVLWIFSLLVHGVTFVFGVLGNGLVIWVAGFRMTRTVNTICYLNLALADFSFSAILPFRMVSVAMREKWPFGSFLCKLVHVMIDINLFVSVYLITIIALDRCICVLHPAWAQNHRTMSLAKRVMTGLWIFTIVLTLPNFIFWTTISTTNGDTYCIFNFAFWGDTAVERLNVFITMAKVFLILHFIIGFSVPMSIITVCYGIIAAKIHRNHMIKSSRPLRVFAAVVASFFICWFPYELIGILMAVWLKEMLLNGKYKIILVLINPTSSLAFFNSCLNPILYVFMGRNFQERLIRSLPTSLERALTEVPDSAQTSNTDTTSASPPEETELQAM", "conditions": "not depicted"}, "FPRL2 [2]": {"biological_target": "T1, FPRL2", "assay": "aequorin-based functional assay on FPRL2-expressing CHO-K1 cells", "conditions": "aequorin assay (FMLP, SHAAG: aequorin and cAMP assays)"}}, "data": [{"sequence": "NSLFGSVETWPWQVL [F2L[7–21]]", "values": [{"measurement": "activity in FPRL2 binding assay", "setting": "FPRL2 [1]", "value": "totally inactive"}, {"measurement": "activity on FPRL2", "setting": "FPRL2 [2]", "value": "totally inactive"}]}]}
